Experimental data reported in patent US20100143365A1.

Experiments:
[1] = molecular target: human fibrillar Aβ42 (human) (UniProt P05067); test: ELISA, Aβ fibrils
[2] = molecular target: lysozyme Gallus gallus fibrils (Gallus gallus) (UniProt P00698); test: ELISA, lysozyme fibrils
Chain of UniProt P00698 (P00698 other isoform, or with tags, fused parts or gaps limits assumed): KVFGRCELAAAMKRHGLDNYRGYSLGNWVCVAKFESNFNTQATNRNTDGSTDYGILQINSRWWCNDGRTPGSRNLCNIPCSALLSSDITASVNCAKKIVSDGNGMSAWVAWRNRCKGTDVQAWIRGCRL

Chain of UniProt P05067 (P05067 672-713 limits assumed): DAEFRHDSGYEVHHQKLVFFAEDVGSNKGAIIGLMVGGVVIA

B1: scFv21 (anti-amyloid scFv designated Pan 21′) (scFv)
scFv: DKLMAEVQLLESGGGLVQPGGSLRLSCAASGFTFSSYAMSWVRQAPGKGLEWVSSIQKSGEKTHYADSVKGRFTISRDNSKNTLYLQMNSLRAEDTAVYYCAKKRTLFDYWGQGTLVTVSSGGGGSGGGGSGGGGSTDIQMTQSPSSLSASVGDRVTITCRASQSISSYLNWYQQKPGKAPKLLIYRASYLQSGVPSRFSGSGSGTDFTLTISSLQPEDFATYYCQQSYSLPTTFGQGTKVEIKRAAAHHHHHHGAAEQKLISEEDLN
**Q.** Which results are given for B1?
**A.** OD Values [1]: 0.011 OD; OD Values [2]: 0.095 OD
